The record followed here is US20140314744A1 (NEOTOPE BIOSCIENCES, published 2014).

In experiment [1] the target is T1, Recombinant human laminin 511 (Biolamina) (human, UniProt O15230 36-3695; P07942 22-1786; P11047 34-1609).
T1 construct: Trimer α5β1γ1, bought; negative control
Nature of the experiment: SPR (Biacore T200). Background: In SPR one partner is held on a chip, and binding of the other changes the refractive index at the surface.

The target in experiment [2] is T2, Recombinant human laminin-α4 (R&D systems) (human, UniProt Q16363-2 826-1816).
T2 construct: also called laminin 4A chain; laminin A4 (α4) chain
T2 sequence (looked up): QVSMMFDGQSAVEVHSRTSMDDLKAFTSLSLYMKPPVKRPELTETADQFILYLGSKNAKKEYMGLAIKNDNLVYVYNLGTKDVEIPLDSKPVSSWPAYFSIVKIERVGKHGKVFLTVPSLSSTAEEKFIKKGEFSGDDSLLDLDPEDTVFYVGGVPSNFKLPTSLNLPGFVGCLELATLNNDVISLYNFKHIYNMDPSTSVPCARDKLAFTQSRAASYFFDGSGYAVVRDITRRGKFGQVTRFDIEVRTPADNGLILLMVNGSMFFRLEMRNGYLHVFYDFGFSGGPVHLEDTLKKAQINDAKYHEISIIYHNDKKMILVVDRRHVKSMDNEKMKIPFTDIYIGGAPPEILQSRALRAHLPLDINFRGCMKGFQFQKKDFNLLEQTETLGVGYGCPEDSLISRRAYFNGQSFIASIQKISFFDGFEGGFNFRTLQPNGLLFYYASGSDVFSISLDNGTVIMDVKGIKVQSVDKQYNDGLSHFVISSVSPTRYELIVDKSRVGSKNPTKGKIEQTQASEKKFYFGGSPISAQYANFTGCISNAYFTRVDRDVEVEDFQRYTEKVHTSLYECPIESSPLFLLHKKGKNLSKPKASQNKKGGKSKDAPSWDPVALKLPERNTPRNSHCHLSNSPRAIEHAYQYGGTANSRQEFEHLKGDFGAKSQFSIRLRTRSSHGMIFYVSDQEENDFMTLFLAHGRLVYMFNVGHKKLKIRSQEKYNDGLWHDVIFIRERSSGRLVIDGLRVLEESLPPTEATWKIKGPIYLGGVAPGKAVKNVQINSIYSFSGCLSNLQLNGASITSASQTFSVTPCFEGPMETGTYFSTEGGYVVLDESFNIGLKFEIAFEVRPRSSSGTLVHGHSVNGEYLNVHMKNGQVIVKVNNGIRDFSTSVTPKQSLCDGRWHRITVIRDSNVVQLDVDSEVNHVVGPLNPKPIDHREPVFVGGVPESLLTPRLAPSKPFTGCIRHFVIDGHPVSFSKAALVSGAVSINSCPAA
Nature of the experiment: SPR (Biacore T200).

Experiment [3] has as its target T3, mouse MCAM (full length, on transfected CHO cells) (mouse, UniProt Q8R2Y2 24-648).
T3 construct: whole, on cells; also called murine MCAM; mouse MCAM transfected CHO cells
T3 sequence (looked up): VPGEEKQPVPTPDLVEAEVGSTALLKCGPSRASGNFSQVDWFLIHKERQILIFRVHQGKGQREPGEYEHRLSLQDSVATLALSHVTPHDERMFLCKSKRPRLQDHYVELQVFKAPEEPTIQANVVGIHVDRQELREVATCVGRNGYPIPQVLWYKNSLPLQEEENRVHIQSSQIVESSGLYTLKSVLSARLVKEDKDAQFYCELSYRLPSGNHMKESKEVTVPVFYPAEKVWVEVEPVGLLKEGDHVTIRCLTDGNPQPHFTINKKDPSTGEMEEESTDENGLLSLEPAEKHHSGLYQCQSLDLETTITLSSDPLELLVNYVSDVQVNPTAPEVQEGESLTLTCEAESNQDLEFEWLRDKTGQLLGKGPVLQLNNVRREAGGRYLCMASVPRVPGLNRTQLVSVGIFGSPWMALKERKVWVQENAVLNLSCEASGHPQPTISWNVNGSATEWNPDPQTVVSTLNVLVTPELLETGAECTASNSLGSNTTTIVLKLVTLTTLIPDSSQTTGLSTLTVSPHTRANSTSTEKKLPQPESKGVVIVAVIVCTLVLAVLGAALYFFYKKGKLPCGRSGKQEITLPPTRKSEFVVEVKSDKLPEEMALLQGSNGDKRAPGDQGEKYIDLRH
Nature of the experiment: flow cytometry on MCAM transfected cells mixed with CFSE-labelled untransfected cells. As for the experimental part: MCAM-Fc was generated by fusing the extracellular domain of murine MCAM to human IgG and produced in CHO cells using standard techniques. Lou/M rats were immunized with 100 μg of MCAM-Fc protein in CFA (1:1 volume). Rats were boosted two times at two week intervals with MCAM-Fc protein in incomplete Freund's adjuvant (IFA) (1:1 volume). Hybridomas were generated from immunized rats using standard protocols and clones were selected by Clonepix. CHO cells were transfected with the full length murine MCAM gene and selected for stable expression using neomycin and standard techniques. Parental CHO cells (MCAM negative) were fluorescently labeled with carboxyfluorescein succinimidyl ester (CFSE) using standard techniques and mixed at a 1:1 ratio with unlabeled MCAM transfected CHO cells. Hybridoma supernatants were incubated with this mixture of cells for 30 minutes and binding of potential MCAM specific antibodies was detected with a fluorescently labeled anti-rat secondary antibody (Jackson Immuno) by flow cytometry.
(§1) Monoclonal antibodies against mouse MCAM were generated as described in Materials and Methods above. The specific binding between the monoclonal antibody and MCAM was confirmed by assessing the monoclonal antibody's ability to bind to cells transfected with either mouse or human MCAM. For this, untransfected cells were labeled with carboxyfluorescein succinimidyl ester (CFSE) and mixed with unlabeled MCAM transfected cells. Untransfected cells (in blue) could therefore be differentiated.
Background: A flow cytometer gives signals particle by particle.

Experiment [4] addresses T4, Murine MCAM domain 1 and 2 (Ig1-2A) with human IgG Fc tag (mouse, UniProt Q8R2Y2 24-244, limits assumed).
T4 construct: domain: domain 1 and 2 (Ig1-2A); also called MCAM Fc domains 1 and 2; not shown: human IgG Fc tag
T4 sequence (looked up): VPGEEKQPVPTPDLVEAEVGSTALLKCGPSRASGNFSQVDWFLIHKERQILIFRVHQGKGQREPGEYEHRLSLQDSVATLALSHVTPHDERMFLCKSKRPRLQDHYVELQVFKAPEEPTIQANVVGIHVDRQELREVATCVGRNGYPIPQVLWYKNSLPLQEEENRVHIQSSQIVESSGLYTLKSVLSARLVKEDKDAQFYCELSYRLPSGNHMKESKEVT
The experiment is described as follows: ForteBio Octet Red, domains on anti-human IgG Fc biosensors. The source says: (§2) The following protocol was used: ForteBio Domain Mapping Protocol. ForteBio anti-human IgG Fc biosensors were used to immobilize various mouse MCAMhFc domains including full length mouse MCAMhFc protein on to biosensor surface. These sensors were dipped into either clone 15 or 17 MCAM specific antibody for detection of binding to these domains or full length protein. After loading these samples into a black 96 well plate, the Octet Red was programmed as follows: 60 seconds for baseline #1; 180 seconds for loading various domains; 60 seconds for baseline #2; 180 seconds for association of antibody to domain; and 240 seconds for dissociation of antibody from domain.

Experiment [5] deals with T5, Murine MCAM domain 1 (Ig1) with human IgG Fc tag (mouse, UniProt Q8R2Y2 24-131, limits assumed).
T5 construct: domain: domain 1 (Ig1); also called MCAM Fc domain 1; not shown: human IgG Fc tag
T5 sequence (looked up): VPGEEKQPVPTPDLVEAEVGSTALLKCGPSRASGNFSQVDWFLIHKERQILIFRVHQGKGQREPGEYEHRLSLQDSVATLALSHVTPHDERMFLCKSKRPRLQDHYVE
The experiment is described as above.
Description: as §2

The target of a further experiment is T6, Ig2 domain (mouse, UniProt Q8R2Y2).
T6 construct: immunoglobulin domain 2 alone; also called Murine MCAM domain 2 (Ig2)
T6 sequence (Fc fusion chain, looked up): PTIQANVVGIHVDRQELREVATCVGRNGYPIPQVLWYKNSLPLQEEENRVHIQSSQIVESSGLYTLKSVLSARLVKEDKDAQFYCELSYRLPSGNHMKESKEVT
The experiment is described as follows: ForteBio Octet Red, anti-human IgG Fc biosensor loaded with the Ig2 domain hFc protein, dipped into clone 15 or SP2 media.
Description: as §2
(§3) For FIG. 10A-B, clones 15 and 17 were tested against the following protein samples (all have human IgG Fc tag): […]
On the technique in general: In BLI a coated tip is dipped into the sample, and binding shifts an interference pattern.

Experiment [6] deals with T7, human MCAM (on transfected cells) (human, UniProt P43121 24-646).
T7 construct: Cells transfected with human MCAM; also called CD146; MUC18
T7 chain: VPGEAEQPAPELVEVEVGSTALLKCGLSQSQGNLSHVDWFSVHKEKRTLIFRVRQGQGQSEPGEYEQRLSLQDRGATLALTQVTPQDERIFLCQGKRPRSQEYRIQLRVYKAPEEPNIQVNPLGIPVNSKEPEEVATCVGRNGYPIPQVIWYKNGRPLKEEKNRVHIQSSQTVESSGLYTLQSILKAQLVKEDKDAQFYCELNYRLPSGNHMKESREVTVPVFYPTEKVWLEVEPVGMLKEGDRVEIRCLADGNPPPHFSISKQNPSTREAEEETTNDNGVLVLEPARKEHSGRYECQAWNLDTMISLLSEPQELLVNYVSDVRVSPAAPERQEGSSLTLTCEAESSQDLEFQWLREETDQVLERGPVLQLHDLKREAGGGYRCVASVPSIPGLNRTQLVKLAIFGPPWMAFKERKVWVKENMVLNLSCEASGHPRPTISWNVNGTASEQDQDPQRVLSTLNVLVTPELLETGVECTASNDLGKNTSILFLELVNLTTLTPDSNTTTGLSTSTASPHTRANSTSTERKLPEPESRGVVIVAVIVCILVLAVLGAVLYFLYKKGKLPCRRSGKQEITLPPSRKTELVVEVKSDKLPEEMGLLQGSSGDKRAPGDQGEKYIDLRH
Nature of the experiment: flow cytometry on human MCAM transfected cells mixed with CFSE-labelled untransfected cells.
Description: as §1

The target in experiment [7] is T8, murine MCAM-Fc (extracellular domain of murine MCAM fused to human IgG) (mouse, UniProt Q8R2Y2 24-563).
T8 construct: extracellular domain; Produced in CHO cells; also called mouse MCAM-Fc protein; full length mouse MCAMhFc protein; not shown: human IgG (Fc) part
T8 sequence (looked up): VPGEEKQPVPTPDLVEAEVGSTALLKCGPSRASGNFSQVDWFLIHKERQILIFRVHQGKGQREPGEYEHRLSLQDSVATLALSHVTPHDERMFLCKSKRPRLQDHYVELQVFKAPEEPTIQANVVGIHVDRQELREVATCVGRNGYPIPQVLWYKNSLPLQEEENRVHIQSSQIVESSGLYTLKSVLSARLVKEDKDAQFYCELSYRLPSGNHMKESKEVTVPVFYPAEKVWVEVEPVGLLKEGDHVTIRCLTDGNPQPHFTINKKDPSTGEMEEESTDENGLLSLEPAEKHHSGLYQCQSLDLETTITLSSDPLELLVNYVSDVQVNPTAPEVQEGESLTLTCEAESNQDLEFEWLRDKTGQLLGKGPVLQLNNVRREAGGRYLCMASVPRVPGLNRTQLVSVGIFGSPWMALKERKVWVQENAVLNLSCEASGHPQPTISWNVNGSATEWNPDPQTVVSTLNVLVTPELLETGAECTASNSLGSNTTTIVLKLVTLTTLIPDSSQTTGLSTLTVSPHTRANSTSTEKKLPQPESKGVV
The experiment is described as follows: ForteBio Octet Red, anti-human IgG Fc biosensor loaded with mouse MCAMhFc (5 ug/ml), dipped into clone 15 (5 ug/ml) or SP2 media.
Description: as §2, §3

B1: MCAM Fc domain 1 alone (Example 9) (Fc fusion)
chain: PRVAGVPGEAEQPAPELVEVEVGSTALLKCGLSQSQGNLSHVDWFSVHKEKRTLIFRVRQGQGQSEPGEYEQRLSLQDRGATLALTQVTPQDERIFLCQGKRPRSQEYRIQ
notes: not shown: Fc tag; not described
Consider B1, for which the binding result in experiment [1] and in experiment [2] was “no binding (tested: 5-175 nM)” throughout.

B2: clone 15 monoclonal antibody (rat anti-MCAM) (antibody, V domains shown)
VH: EVRLVESGGGLVQPGKSMKLSCVASGFKFSNYYMSWVRQAPAKGLEWVASISDGGGDTFCRDLVKGRFTISRDNAKSTLYLQMDSLRPEDTATYYCARRGAAMGGVMDAWGQGTSVTVSS
VL: DIVMTQSPSSLAVSAGETVSIHCKSSQSLLYSGTQKNYLAWFQQKPGQSPKLLIFWASTRQSGVPDRFIGRGSGTDFTLTISGVQAEDLAIYYCQQYYDTLTDTFGAGTKLELKR
notes: Rat monoclonal from a hybridoma; also called anti-MCAM antibody (clone 15)
Regarding B2, the binding result was “binds” in experiment [3]; “binds” in experiment [4]; “no binding (tested: 5 ug/ml)” in experiment [5]; “no binding (tested: 5 ug/ml)” in the experiment with Ig2 domain; “no binding” in experiment [6]; “binds” in experiment [7].
